In PMC13124150, “Interrogating the structure and function of the human voltage-gated proton channel (hHv1) with a fluorescent noncanonical amino acid” (eLife, 2026):

Target: the molecule itself
Assay: SEC; SEC-cleaned No TAG hHv1 injected at several concentrations on an ENrich SEC 650 column in Buffer-H2 (50 mM Tris, 150 mM NaCl, 12 mM Anz3-12, pH 8.0); compared with a run in denaturing buffer (50 mM Tris, pH 8.0, 150 mM NaCl, 0.2% SDS); Ex/Em = 280/350 nm

B1: hHv1-Cysless (His-EK-hHv1-C107A-C249A), human voltage-gated proton channel (natural protein, UniProt Q96D96 1-273, looked up)
chain: MATWDEKAVTRRAKVAPAERMSKFLRHFTVVGDDYHAWNINYKKWENEEEEEEEEQPPPTPVSGEEGRAAAPDVAPAPGPAPRAPLDFRGMLRKLFSSHRFQVIIIALVVLDALLVLAELILDLKIIQPDKNNYAAMVFHYMSITILVFFMMEIIFKLFVFRLEFFHHKFEILDAVVVVVSFILDIVLLFQEHQFEALGLLILLRLWRVARIINGIIISVKTRSERQLLRLKQMNVQLAAKIQHLEFSASEKEQEIERLNKLLRQHGLLGEVN
notes: human voltage-gated proton channel (hHv1), full-length, with C107A and C249A (Cysless); Construct name His-EK-hHv1 in pET15-b; 'EK' between the His tag and hHv1 is probably an enterokinase site (surmised); no cleavage step is described; also called No TAG; control; source: E. coli BL21-Gold(DE3), purified (Ni-NTA in Anzergent 3-12, FSEC)
  stoichiometry N: 2
